In US20170114104A1 (KOREA ADVANCED INSTITUTE OF SCIENCE AND TECHNOLOGY, published 2017):
Positions count from the first letter of the chain named. Names and notes keep the numbering of the source.

B1: Monomeric rhizavidin with one mutation (1M: S69R) (designed binder)
chain: FDASNFKDFSSIASASSSWQNQSGSTMIIQVDSFGNVSGQYVNRAQGTGCQNSPYPLTGRVNGTFIAFRVGWNNSTENCNSATGWTGYAQVNGNNTEIVTSWNLAYEGGSGPAIEQGQDTFQYVPTTE
B2: Monodin (MA) (designed binder)
chain: B1 chain with S23H, Q46E, A67D, R69S, G71K, A82N, G84Q, S101R, A105K, E115W
notes: Expressed from pET21a and purified on Ni-NTA (His6 tag); also called mRA E115W/S23H/Q46E
B3: Rhizavidin (RA) (other)
chain: B1 chain with R69S
notes: Homodimer; Purified on Ni-NTA; also called dimeric rhizavidin; wild type rhizavidin

Tests used:
[1] = biological target: T1, Biotinylated green fluorescent protein (biotin-GFP) (site-specifically biotinylated in the N-terminal biotinylation peptide (AP, SEQ ID NO: 4) by biotin ligase BirA); assay: 15 % native-PAGE gel mobility shift, fluorescence of biotin-GFP [a]
T1 construct: Negatively charged GFP with the N-terminal AP biotinylation peptide

[2] = biological target: T1, Biotinylated green fluorescent protein …; assay: native-PAGE off-rate under excess biotin, 45 °C; reference streptavidin
[3] = biological target: T1, Biotinylated green fluorescent protein …; assay: native-PAGE off-rate under excess biotin, 37 °C
[4] = biological target: T2, Biotinylated protein G (biotin-protein G) (site-specifically biotinylated in the N-terminal biotinylation peptide (AP, SEQ ID NO: 4) by BirA; labelled with atto532); assay: native-PAGE off-rate under excess biotin, 37 °C
T2 construct: About 12 kDa protein G with the N-terminal AP peptide; also called biotin-protein G-atto532
T2 chain: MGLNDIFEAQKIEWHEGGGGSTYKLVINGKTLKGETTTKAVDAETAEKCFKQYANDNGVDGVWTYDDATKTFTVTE

[5] = biological target: T1, Biotinylated green fluorescent protein …; assay: native-PAGE off-rate under excess biotin, 37 °C; remark: listed apart in the source
[6] = biological target: T1, Biotinylated green fluorescent protein …; assay: native-PAGE off-rate under excess biotin, 45 °C

| Binder | binding result [1] | fold faster off-rate than tetrameric streptavidin [2] | koff [3] | koff [4] | dissociation half-life [5] | koff [6] |
| --- | --- | --- | --- | --- | --- | --- |
| B1 | binds | – | – | – | – | – |
| B2 | – | 3.4 fold | 2.3e-05 s⁻¹ | 4.6e-05 s⁻¹ | 8.3 h | 6.4e-05 s⁻¹ |
| B3 | – | – | 5e-05 s⁻¹ | 3.2e-05 s⁻¹ | 3.8 h | 6e-05 s⁻¹ |
